The values that follow come from PMC3411732, “Binding of the Heterogeneous Ribonucleoprotein K (hnRNP K) to the Epstein-Barr Virus Nuclear Antigen 2 (EBNA2) Enhances Viral LMP2A Expression” (PLoS ONE, 2012).

The assay addresses T1, EBNA2-wt, transiently expressed in HEK 293-T cells (Epstein-Barr virus, UniProt P12978 1-487, arginines of the RG-repeat (aa 339–354) symmetrically or asymmetrically di-methylated (SDMA or ADMA)).
T1 sequence (looked up): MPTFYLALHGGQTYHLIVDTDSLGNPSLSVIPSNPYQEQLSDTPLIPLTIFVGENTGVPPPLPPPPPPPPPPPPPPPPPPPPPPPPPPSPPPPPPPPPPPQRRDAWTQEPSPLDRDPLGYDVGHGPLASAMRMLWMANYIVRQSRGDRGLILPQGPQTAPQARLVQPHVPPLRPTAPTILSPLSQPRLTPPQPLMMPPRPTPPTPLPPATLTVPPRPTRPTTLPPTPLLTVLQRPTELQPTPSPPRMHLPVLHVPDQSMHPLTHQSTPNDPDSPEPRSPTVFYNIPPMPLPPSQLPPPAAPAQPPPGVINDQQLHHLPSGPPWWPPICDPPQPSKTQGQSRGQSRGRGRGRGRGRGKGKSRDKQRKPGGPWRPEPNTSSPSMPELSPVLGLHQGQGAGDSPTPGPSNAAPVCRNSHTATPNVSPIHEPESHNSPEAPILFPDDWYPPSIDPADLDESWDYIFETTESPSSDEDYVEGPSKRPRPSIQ
Briefly: cell-based or functional assay.

B1: GFP-hnRNP K (wild type), expressed in 293T cells (natural protein)
chain: not shown
Turning to B1, the “LMP2A promoter luciferase reporter in DG75 cells; co-expression of hnRNP K-wt (pSG5-HA-hnRNP K) with EBNA2-wt (pSG5-EBNA2)” value was no more than 3 fold.
